From article PMC3017872 come the findings set out here.

Test [1] has as its target Fcε receptors expressed on the surface of U937 monocytic cells (human (endogenous in U937)). As to the kind of experiment: flow cytometry on cells. (Flow cytometry measures light scatter and fluorescence of single cells or particles in a stream.)
Test [2] deals with recombinant IgE receptor FcεRI alpha (sFcεRIα) (UniProt P12319). As to the kind of experiment: SPR.
UniProt P12319, sequence (P12319 26-205): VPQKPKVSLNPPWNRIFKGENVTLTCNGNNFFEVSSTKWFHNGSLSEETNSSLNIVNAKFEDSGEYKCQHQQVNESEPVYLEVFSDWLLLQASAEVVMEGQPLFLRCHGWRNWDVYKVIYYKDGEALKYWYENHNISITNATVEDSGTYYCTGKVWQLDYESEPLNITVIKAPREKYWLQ

The substance “chimaeric MOv18 IgE antibody against the ovarian cancer antigen FBP” had a percent of cells bound in test [1] of 60.6%.
In general, koff refers to the rate constant with which the complex falls apart. Broadly, the kon is the second-order rate constant of association. Take chimaeric antibody NIP IgE: in test [2], the koff was 2.6e-05 s⁻¹ and the kon is 230000 M⁻¹ s⁻¹.
